Measured values published in paper PMC6955338 (Proceedings of the National Academy of Sciences of the …, 2019).

What was measured:
[1] = target: human CD11b I-domain (huCD11b-I) (human); test: SAXS
[2] = target: mouse CD11b I-domain (moCD11b-I) (mouse) (UniProt P05555); test: BLI
[3] = target: T1, leukocidin GH (LukGH) wild-type (Staphylococcus aureus USA300 (ST8) …); test: SAXS
T1 chain 1: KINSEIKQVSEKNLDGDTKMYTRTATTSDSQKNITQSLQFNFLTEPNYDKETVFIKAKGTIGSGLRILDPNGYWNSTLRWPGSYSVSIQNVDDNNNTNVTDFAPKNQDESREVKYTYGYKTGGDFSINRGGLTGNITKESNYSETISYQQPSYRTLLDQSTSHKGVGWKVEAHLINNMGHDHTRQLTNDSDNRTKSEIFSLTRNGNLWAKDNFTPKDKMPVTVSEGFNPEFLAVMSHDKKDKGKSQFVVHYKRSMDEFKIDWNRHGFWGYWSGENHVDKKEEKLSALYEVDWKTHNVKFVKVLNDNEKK
T1 chain 2: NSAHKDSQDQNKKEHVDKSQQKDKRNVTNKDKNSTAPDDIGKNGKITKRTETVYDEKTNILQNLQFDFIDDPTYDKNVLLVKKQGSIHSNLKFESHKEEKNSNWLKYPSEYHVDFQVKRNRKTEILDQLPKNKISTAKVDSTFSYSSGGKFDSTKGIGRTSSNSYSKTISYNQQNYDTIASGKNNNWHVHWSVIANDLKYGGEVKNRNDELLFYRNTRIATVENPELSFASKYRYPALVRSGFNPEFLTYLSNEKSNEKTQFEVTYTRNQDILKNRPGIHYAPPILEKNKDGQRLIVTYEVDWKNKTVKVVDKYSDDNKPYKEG

Chain of mouse CD11b I-domain (moCD11b-I) (mouse) (P05555 143-337): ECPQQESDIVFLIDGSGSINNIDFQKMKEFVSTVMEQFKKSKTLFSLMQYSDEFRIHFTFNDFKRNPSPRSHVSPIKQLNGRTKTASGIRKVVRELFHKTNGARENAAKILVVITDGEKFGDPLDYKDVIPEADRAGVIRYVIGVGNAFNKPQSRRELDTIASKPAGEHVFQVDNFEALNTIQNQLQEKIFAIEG

Row | Molecule | stoichiometry N [1] | Kd [2] | binding result [3]
1 | leukocidin GH (LukGH) wild-type (complex) | 1 | 1000 nM | –
2 | LukGH^K319A (complex) | – | 63 nM | –
3 | Fab of αLukGH-mAb#5.H1H2 (Fab, V domains shown) VH: ELQLQESGPGLVKPSETLSLTCTVSGGSISSGSYYWDWIRQPPGKGLEWIGNIYKSGSTYYNPSLKSRVTISVDTSKNQFSLKLSSVTAADTAVYYCARERGMHYMDVWGKGTTVTVSS VL: DIQMTQSPSSLSASVGDRVTITCRASQSINSYLNWYQQKPGKAPKLLIYAASSLQSGVPSRFSGSGSGTDFTLTISSLQPEDFATYYCQQQFDPPFTFGGGTKVEIK | – | – | binds
